System: (His)6PemI

PemK(His)6
cleavage of mazG mRNA (native PAGE of digestion products): the addition of PemI inhibited the cleavage of mazG mRNA in a dose-dependent manner

From US20130071374
